Patent US5670637, “Nucleic acid ligands” (NeXstar Pharmaceuticals, Inc.)

Molecular target: nerve growth factor (NGF) (UniProt P01139 P01139:122-241)
Assay: filter
Conditions: chain copies: 2

Sequence of nerve growth factor (NGF) (P01139 122-241, one chain of several): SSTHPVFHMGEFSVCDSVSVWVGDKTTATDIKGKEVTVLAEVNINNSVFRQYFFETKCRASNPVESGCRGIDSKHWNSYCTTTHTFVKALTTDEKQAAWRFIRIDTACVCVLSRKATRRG

B1: hsngf.a (ssRNA)
RNA: GGGAGCUCAGAAUAAACGCUCAACUCAUGGAGCGCAAGACGAAUAGCUACAUAUUCGACAUGAGGCCCGGAUCCGGC
B1: binds.
